Laboratory results as given in paper PMC3408589 (Chemistry & biology, 2012).

Target: the molecule itself
Assay: cross-linking

B1: untagged human ribonucleotide reductase α expressed in COS-1 cells (monocistronic cassette) (enzyme, UniProt P23921 1-792, looked up)
chain: MHVIKRDGRQERVMFDKITSRIQKLCYGLNMDFVDPAQITMKVIQGLYSGVTTVELDTLAAETAATLTTKHPDYAILAARIAVSNLHKETKKVFSDVMEDLYNYINPHNGKHSPMVAKSTLDIVLANKDRLNSAIIYDRDFSYNYFGFKTLERSYLLKINGKVAERPQHMLMRVSVGIHKEDIDAAIETYNLLSERWFTHASPTLFNAGTNRPQLSSCFLLSMKDDSIEGIYDTLKQCALISKSAGGIGVAVSCIRATGSYIAGTNGNSNGLVPMLRVYNNTARYVDQGGNKRPGAFAIYLEPWHLDIFEFLDLKKNTGKEEQRARDLFFALWIPDLFMKRVETNQDWSLMCPNECPGLDEVWGEEFEKLYASYEKQGRVRKVVKAQQLWYAIIESQTETGTPYMLYKDSCNRKSNQQNLGTIKCSNLCTEIVEYTSKDEVAVCNLASLALNMYVTSEHTYDFKKLAEVTKVVVRNLNKIIDINYYPVPEACLSNKRHRPIGIGVQGLADAFILMRYPFESAEAQLLNKQIFETIYYGALEASCDLAKEQGPYETYEGSPVSKGILQYDMWNVTPTDLWDWKVLKEKIAKYGIRNSLLIAPMPTASTAQILGNNESIEPYTSNIYTRRVLSGEFQIVNPHLLKDLTERGLWHEEMKNQIIACNGSIQSIPEIPDDLKQLYKTVWEISQKTVLKMAAERGAFIDQSQSLNIHIAEPNYGKLTSMHFYGWKQGLKTGMYYLRTRPAANPIQFTLNKEKLKDKEKVSKEEEEKERNTAAMVCSLENRDECLMCGS
stoichiometry N: 6
